The values that follow come from PMC5362243, “A rare IL33 loss-of-function mutation reduces blood eosinophil counts and protects from asthma” (PLoS Genetics, 2017).

The experiment has as its target T1, Human ST2-Flag-His (recombinant IL-33R, extracellular domain) (human, UniProt Q01638-1 19-328).
T1 construct: human ST2 (IL1RL1, IL-33 receptor), recombinant protein encompassing the extracellular domain; Captured on the chip through its His tag by an immobilised penta-His antibody; also called IL-33R/ST2; IL1RL1; source: prepared by Amgen
T1 sequence (looked up): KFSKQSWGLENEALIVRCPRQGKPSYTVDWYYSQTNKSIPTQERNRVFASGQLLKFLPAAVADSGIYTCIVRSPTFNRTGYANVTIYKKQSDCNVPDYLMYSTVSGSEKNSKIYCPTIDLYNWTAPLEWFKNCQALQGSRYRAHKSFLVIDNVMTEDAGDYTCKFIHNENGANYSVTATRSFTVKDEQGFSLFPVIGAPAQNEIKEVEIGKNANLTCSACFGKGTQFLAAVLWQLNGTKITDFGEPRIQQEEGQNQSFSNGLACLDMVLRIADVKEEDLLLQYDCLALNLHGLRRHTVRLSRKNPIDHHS
As to the kind of experiment: SPR; Biacore T200, CM5 chip; human ST2-Flag-His captured by amine-coupled penta-His antibody; IL-33 variants injected at 200 nM (180 s association, 300 s dissociation); 25°C, HBS-P (10 mM HEPES pH 7.4, 150 mM NaCl, 0.05% P20); single replicate. To be noted: both partners purified.

B1: IL-33 (95-270), wild type cytokine domain (domain or fragment, human, UniProt O95760-1 95-270, looked up)
chain: AFGISGVQKYTRALHDSSITGISPITEYLASLSTYNDQSITFALEDESYEIYVEDLKKDEKKDKVLLSYYESQHPSNESGDGVDGKMLMVTLSPTKDFWLHANNKEHSVELHKCEKPLPDQAFFVLHNMHSNCVSFECKTDPGVFIGVKDNHLALIKVDSSENLCTENILFKLSET
notes: human interleukin-33, residues 95-270 of the 270-residue protein, released by thrombin cleavage from a poly-His fusion (pET24a); Start at residue 95 chosen after the natural processing of IL-33; also called wild type IL-33 (95–270); IL-33 (95–270) (Amgen); source: E. coli, purified (nickel HisTrap, SEC, thrombin cleavage, SEC); not shown: poly-His, N-terminal, cleaved
Turning to B1, the binding result is “binds”.
